The target of assay [1] is class I HLA molecules (MHC-I) at the cell surface (human). Briefly: cell-based or functional assay.
The target of a further assay is T1, Ad5Luc3 (adenovirus serotype 5 (Ad5), UniProt P11818 1-581).
T1 sequence: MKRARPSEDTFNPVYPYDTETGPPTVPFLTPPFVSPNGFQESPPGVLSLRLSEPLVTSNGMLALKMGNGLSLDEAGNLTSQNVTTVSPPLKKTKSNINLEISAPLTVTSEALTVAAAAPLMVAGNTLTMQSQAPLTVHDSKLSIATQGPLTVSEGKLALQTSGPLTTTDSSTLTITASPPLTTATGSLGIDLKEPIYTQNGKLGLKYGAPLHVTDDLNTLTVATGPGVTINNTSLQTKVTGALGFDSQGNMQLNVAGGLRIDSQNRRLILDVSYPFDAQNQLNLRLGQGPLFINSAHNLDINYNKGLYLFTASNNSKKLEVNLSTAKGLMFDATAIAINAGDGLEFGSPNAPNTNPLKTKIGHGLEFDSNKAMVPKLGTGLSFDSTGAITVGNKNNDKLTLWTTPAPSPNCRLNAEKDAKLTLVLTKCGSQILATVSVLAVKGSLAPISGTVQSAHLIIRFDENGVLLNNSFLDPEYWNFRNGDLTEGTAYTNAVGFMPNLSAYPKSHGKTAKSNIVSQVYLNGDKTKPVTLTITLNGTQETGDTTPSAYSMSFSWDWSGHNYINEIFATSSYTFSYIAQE
Briefly: cell-based or functional assay.

For Ad5Luc3 (from UniProt P11818 1-581), the luciferase activity 18 h post-infection, attachment at 0 C; Daudi HLA- cells against Daudi-HLA+ cells (orders of magnitude) in assay [1] fell in the range of 3 to 4. Consider RAIVGFRVQWLRRYFVNGSR [synthetic peptide MH20], for which the “fold decrease in luciferase activity (RLU) in HeLa cells; Ad5Luc3 preincubated with peptide, attachment at 0 C” value with Ad5Luc3 was found to be 100 fold.

Values taken from patent publication US20020150558A1 (CENTRE NATIONAL DE LA RECHERCHE SCIENTIFIQUE CNRS, published 2002).
